Data taken from paper PMC5705603.

Molecular target: Segmentally labelled CheA (P1 domain and P2-5 part labelled differently and joined) (Escherichia coli) (UniProt P07363)
Test: NMR titration

Chain of UniProt P07363 (P07363 whole entry, the tested form may be a part): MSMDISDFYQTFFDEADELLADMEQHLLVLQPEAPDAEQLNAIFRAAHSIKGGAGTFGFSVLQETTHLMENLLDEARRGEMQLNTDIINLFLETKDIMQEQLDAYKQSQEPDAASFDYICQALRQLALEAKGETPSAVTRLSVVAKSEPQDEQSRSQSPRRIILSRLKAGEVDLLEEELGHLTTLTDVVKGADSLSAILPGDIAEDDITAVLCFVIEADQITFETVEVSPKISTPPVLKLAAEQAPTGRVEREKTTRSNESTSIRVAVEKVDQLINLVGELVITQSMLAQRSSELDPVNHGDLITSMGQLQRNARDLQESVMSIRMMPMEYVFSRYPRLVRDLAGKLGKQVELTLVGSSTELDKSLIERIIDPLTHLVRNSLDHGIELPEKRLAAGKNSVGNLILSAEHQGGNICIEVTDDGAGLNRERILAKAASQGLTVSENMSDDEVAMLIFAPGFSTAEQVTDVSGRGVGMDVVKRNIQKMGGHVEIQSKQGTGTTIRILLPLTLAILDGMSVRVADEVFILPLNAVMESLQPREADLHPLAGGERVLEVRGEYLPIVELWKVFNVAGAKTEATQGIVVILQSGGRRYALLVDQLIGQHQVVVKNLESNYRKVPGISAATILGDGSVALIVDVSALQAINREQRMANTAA

Substance “CheY from Escherichia coli, wild type (from UniProt P0AE67 1-129) (natural protein)” has a stoichiometry N (CheY per CheA) of 2.
